Patent publication US12379386B2, “Antibodies to 25-hydroxyvitamin D2 and D3 for detecting total 25-hydroxyvitamin D” (Siemens Healthcare Diagnostics Inc., priority 2011, dated 2025)

How the values were obtained:
Assay type in all cases: binding
[1] = test system: Vit D C22-Diaminobutane-Suberoyl-KLH; assay: 10H9 hybridoma supernatant ELISA on coated plate, no competing antigen; conditions: Ag 0, coat 50 ng/mL
Description: (§1) Following isolation of hybridoma clones, studies were conducted to determine the relative ability of the antibodies to bind to both 25-hydroxyvitamin D2 and 25-hydroxyvitamin D3. To assess this, antibody displacement assays were conducted to determine the degree to which binding between vitamin D-C22 BSA and a reactive antibody raised against the antigen (10H9) could be disrupted by the presence of 25-hydroxyvitamin D2 or 25-hydroxyvitamin D3. Cell culture supernatant from the 10H9 hybridoma cell lines producing antibodies reactive to vitamin D-C22 BSA were coincubated in the presence or absence of 25-hydroxyvitamin D2 or 25-hydroxyvitamin D3 on microtiter plates coated with vitamin D-C22 KLH for 1 hour. After washing the plates, goat anti-mouse IgG-HRPO was added and incubated for 30 minutes. Plates were washed and then incubated with tetramethyl benzidine (TMB). The generated color was stopped using 1N sulfuric acid and the optical density was measured at 450 nm.

[2] = Antibody displacement assay, 10H9 supernatant, competitor 25-hydroxyvitamin D2; conditions: for optical density at 450 nm: 25 OH-D2 0.4 μg/mL, coat Vit D C22-Diaminobutane-Suberoyl-KLH 50 ng/mL
Description: as §1

[3] = Displacement assay with purified coated 10H9 and alkaline phosphatase tracer, competitor 25-hydroxyvitamin D3; conditions: for optical density at 405 nm: MAb coat 1 ug/mL
Description: (§2) Next, displacement experiments were conducted using purified antibody, rather than cell supernatant. In this experiment, the antibody of interest was coated directly on the microtiter plate via a two-hour incubation. Coated plates were washed and then coincubated with either 25-hydroxyvitamin D2 or 25-hydroxyvitamin D3 in the presence of alkaline phosphatase-conjugated vitamin D-C22 BSA. After 30 minutes the plates were washed and color was developed by adding the substrate p-nitrophenyl phosphate (PNPP). Optical density colored solution was measured at 405 nm.

[4] = Displacement assay with purified coated 10H9 and alkaline phosphatase tracer, competitor 25-hydroxyvitamin D2; conditions: for optical density at 405 nm: MAb coat 1 ug/mL
Description: as §2

[5] = Antibody displacement assay, 10H9 supernatant, competitor 25-hydroxyvitamin D3; conditions: for optical density at 450 nm: 25 OH-D3 0.4 μg/mL, coat Vit D C22-Diaminobutane-Suberoyl-KLH 50 ng/mL
Description: as §1

B1: 10H9: murine monoclonal antibody from the 10H9 hybridoma, raised against vitamin D-C22 BSA; binds 25-hydroxyvitamin D2 and D3 (antibody, V domains shown)
VH: VQLLESGPELVKPGASMKISCKASGYSFTDYTMNWVKQSHGKNLEWIGLINPYNGFTIYNQKFKGKATLTVDKSSSTAYMELLSLTSEDSAVYYFIRAHYDGRVFWGQGTTLTVSS
VL: CELVMTQSPLSLPVSLGDQASVSCRSSQSLVHSNGNTYLHRYLQKPGQSPKLLIYQVSNRFSGVPDRFSGSGSGTDFTLKITRVEAEDLGVYFCSQITHFPPTFGGGTKLEIKR
modifications: Description of Unknown: 10H9 monoclonal antibody heavy chain variable region polypeptide; Description of Unknown: 10H9 monoclonal antibody light chain variable region polypeptide
[1]; supernatant dilution 1:4
  optical density at 450 nm: 1.997
[1]; supernatant dilution 1:16
  optical density at 450 nm: 1.244
[1]; supernatant dilution 1:64
  optical density at 450 nm: 0.672
[1]; supernatant dilution 1:256
  optical density at 450 nm: 0.313
[2]; 10H9 supernatant, 25-hydroxyvitamin D2
  disruption of antibody binding by coincubation: disrupted in a concentration-dependent manner
[2]; supernatant dilution 1:4
  optical density at 450 nm: 0.323
[2]; supernatant dilution 1:16
  optical density at 450 nm: 0.154
[2]; supernatant dilution 1:64
  optical density at 450 nm: 0.097
[2]; supernatant dilution 1:256
  optical density at 450 nm: 0.086
[3]; 25OH-VIT D3 0 ng/ml
  optical density at 405 nm: 1.213
[3]; 25OH-VIT D3 5 ng/ml
  optical density at 405 nm: 1.083
[3]; 25OH-VIT D3 10 ng/ml
  optical density at 405 nm: 0.800
[3]; 25OH-VIT D3 25 ng/ml
  optical density at 405 nm: 0.519
[3]; 25OH-VIT D3 100 ng/ml
  optical density at 405 nm: 0.115
[3]; 25OH-VIT D3 200 ng/ml
  optical density at 405 nm: 0.089
[3]; 25OH-VIT D3 400 ng/ml
  optical density at 405 nm: 0.077
[3]; 25OH-VIT D3 1000 ng/ml
  optical density at 405 nm: 0.069
[3]; purified antibody, 25-hydroxyvitamin D3
  disruption of 10H9 binding to vitamin D-C22 BSA by coincubation: disrupted in a concentration-dependent manner
[4]; 25OH-VIT D2 0 ng/ml
  optical density at 405 nm: 1.277
[4]; 25OH-VIT D2 5 ng/ml
  optical density at 405 nm: 1.189
[4]; 25OH-VIT D2 10 ng/ml
  optical density at 405 nm: 1.007
[4]; 25OH-VIT D2 25 ng/ml
  optical density at 405 nm: 0.771
[4]; 25OH-VIT D2 100 ng/ml
  optical density at 405 nm: 0.106
[4]; 25OH-VIT D2 200 ng/ml
  optical density at 405 nm: 0.080
[4]; 25OH-VIT D2 400 ng/ml
  optical density at 405 nm: 0.069
[4]; 25OH-VIT D2 1000 ng/ml
  optical density at 405 nm: 0.063
[4]; purified antibody, 25-hydroxyvitamin D2
  disruption of 10H9 binding to vitamin D-C22 BSA by coincubation: disrupted in a concentration-dependent manner
[5]; 10H9 supernatant, 25-hydroxyvitamin D3
  disruption of antibody binding by coincubation: disrupted in a concentration-dependent manner
[5]; supernatant dilution 1:4
  optical density at 450 nm: 0.384
[5]; supernatant dilution 1:16
  optical density at 450 nm: 0.176
[5]; supernatant dilution 1:64
  optical density at 450 nm: 0.105
[5]; supernatant dilution 1:256
  optical density at 450 nm: 0.090
